# In patent US20220380475A1 (SORRISO PHARMACEUTICALS, published 2022):
# Positions count from the first letter of the chain named. Numbers in names are those of the source.
# T1: recombinant soluble human IL-6R (human, UniProt P08887 20-365)
# T1 construct: also called sIL-6R; shIL-6R
# T1 sequence: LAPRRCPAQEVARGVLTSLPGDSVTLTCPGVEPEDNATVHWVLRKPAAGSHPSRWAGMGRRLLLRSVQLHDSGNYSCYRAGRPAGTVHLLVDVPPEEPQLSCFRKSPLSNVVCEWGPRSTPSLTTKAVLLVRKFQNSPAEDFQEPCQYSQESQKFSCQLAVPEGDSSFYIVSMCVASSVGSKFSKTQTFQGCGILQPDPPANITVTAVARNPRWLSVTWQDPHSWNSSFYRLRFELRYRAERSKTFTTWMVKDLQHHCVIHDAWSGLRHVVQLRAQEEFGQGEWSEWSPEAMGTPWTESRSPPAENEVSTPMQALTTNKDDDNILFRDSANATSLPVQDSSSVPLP
# B1: ID-52V (VHH)
# VHH: EVQLVESGGGLVQAGGSTRLTCKASGSIFNINSINVMAWYRQAPGKQRELVAIIGKGGGTNYADFVKGRFTISRDAAKNTVNLQMNSLKPEDTAVYYCYADYEDHDSPHNASWGQGTQVTVSS
# notes: Mutant of 5G9; also called 5G9 + F109H, R105H; not shown: C-terminal Flag- and His-tags of E. coli constructs
# B2: ID-59V (VHH)
# VHH: B1 VHH with Y62D, H105R, H109F
# notes: Mutant of 5G9; also called 5G9 + Y62D; not shown: C-terminal Flag- and His-tags of E. coli constructs
# B3: ID-55V (VHH)
# VHH: B1 VHH with K23H, H105R, H109F
# notes: Mutant of 5G9; also called 5G9 + K23H; not shown: C-terminal Flag- and His-tags of E. coli constructs
# B4: ID-56V (VHH)
# VHH: B1 VHH with F29S, H105R, H109F
# notes: Mutant of 5G9; also called 5G9 + F29S; not shown: C-terminal Flag- and His-tags of E. coli constructs
# B5: ID-3V (VHH)
# VHH: EVQLVESGGGLVQAGGSTRLTCLASGSISSINVIGWYRQAPGKQRELVAMIGRGEGANYGDFAKGRFTISRDNSKNTVYLQMNSLKPEDTAVYYCYADYEDHDSPFNGSWGQGTQVTVSS
# notes: Mutant of 7F6; also called 7F6 + R102H; not shown: C-terminal Flag- and His-tags of E. coli constructs
# B6: ID-6V (VHH)
# VHH: B5 VHH with H102R, F106H
# notes: Mutant of 7F6; also called 7F6 + F106H; not shown: C-terminal Flag- and His-tags of E. coli constructs
# B7: ID-50V (VHH)
# VHH: B5 VHH with H102R, F106V
# notes: Mutant of 7F6; also called 7F6 + F106V; not shown: C-terminal Flag- and His-tags of E. coli constructs
# B8: ID-47V (VHH)
# VHH: B5 VHH with H102R, F106I
# notes: Mutant of 7F6; also called 7F6 + F106I; not shown: C-terminal Flag- and His-tags of E. coli constructs
# B9: ID-40V (VHH)
# VHH: B5 VHH with F106H
# notes: Mutant of 7F6; also called 7F6 + R102H, F106H; not shown: C-terminal Flag- and His-tags of E. coli constructs
# B10: ID-49V (VHH)
# VHH: B5 VHH with H102R, F106T
# notes: Mutant of 7F6; also called 7F6 + F106T; not shown: C-terminal Flag- and His-tags of E. coli constructs
# Molecular target: T1, recombinant soluble human IL-6R
# Assay: standard gp130 ELISA (competition); 10 ng/mL IL-6R, 50 ng/mL IL-6; column 'Potency'
# Procedure: Mutant 5G9 sequences were produced and tested for their potency in the standard gp130 ELISA. The standard gp130 ELISA has a final assay concentration of 10 ng/mL IL-6R and 50 ng/mL IL-6.
row,Binder,IC50
1,B1,240 pM
2,B2,110 pM
3,B3,110 pM
4,B4,70 pM

# Molecular target: T1, recombinant soluble human IL-6R
# Assay: standard gp130 ELISA (competition); column 'Potency'
row,Binder,IC50
1,B5,160 pM
2,B6,220 pM
3,B7,240 pM
4,B8,270 pM
5,B9,210 pM
6,B10,310 pM
